Changes are numbered by the printed parent chain. Names and notes keep the numbering of the source.
B1: Q333P (protein)
chain: MQLRNPELHLGCALALRFLALVSWDIPGARALDNGLARTPTMGWLHWERFMCNLDCQEEPDSCISEKLFMEMAELMVSEGWKDAGYEYLCIDDCWMAPQRDSEGRLQADPQRFPHGIRQLANYVHSKGLKLGIYADVGNKTCAGFPGSFGYYDIDAQTFADWGVDLLKFDGCYCDSLENLADGYKHMSLALNRTGRSIVYSCEWPLYMWPFQKPNYTEIRQYCNHWRNFADIDDSWKSIKSILDWTSFNQERIVDVAGPGGWNDPDMLVIGNFGLSWNQQVTQMALWAIMAAPLFMSNDLRHISPQAKALLQDKDVIAINQDPLGKQGYQLRPGDNFEVWERPLSGLAWAVAMINRQEIGGPRSYTIAVASLGKGVACNPACFITQLLPVKRKLGFYEWTSRLRSHINPTGTVLLQLENTMQMSLKDLL
B2: F337C (protein)
chain: B1 chain with P333Q, F337C
B3: G334V (protein)
chain: B1 chain with P333Q, G334V
B4: D335V (protein)
chain: B1 chain with P333Q, D335V
B5: D335G (protein)
chain: B1 chain with P333Q, D335G
B6: E338A (protein)
chain: B1 chain with P333Q, E338A
B7: N336D (protein)
chain: B1 chain with P333Q, N336D
B8: N336S (protein)
chain: B1 chain with P333Q, N336S
B9: F337Y (protein)
chain: B1 chain with P333Q, F337Y
B10: N336I (protein)
chain: B1 chain with P333Q, N336I
B11: F337L (protein)
chain: B1 chain with P333Q, F337L
B12: D335E (protein)
chain: B1 chain with P333Q, D335E
B13: E338D (protein)
chain: B1 chain with P333Q, E338D
B14: F337V (protein)
chain: B1 chain with P333Q, F337V
B15: N336Y (protein)
chain: B1 chain with P333Q, N336Y
B16: D335Y (protein)
chain: B1 chain with P333Q, D335Y
B17: G334R (protein)
chain: B1 chain with P333Q, G334R
B18: D335A (protein)
chain: B1 chain with P333Q, D335A
B19: E338G (protein)
chain: B1 chain with P333Q, E338G
B20: N336T (protein)
chain: B1 chain with P333Q, N336T
B21: V339M (protein)
chain: B1 chain with P333Q, V339M

Tested on: mutant form of α-Gal A expressed in HEK-293 cells
Test: HEK assay (GLP HEK / Migalastat Amenability Assay): α-Gal A activity in lysates of transiently transfected HEK-293 cells incubated with or without 10 μM migalastat
Type: cell-based, human
Conditions: for Absolute increase (% WT) / Relative increase: 10 μM migalastat versus baseline; for Baseline α-Gal A activity (% WT): absence of migalastat; for Baseline α-Gal A activity (% WT) / 10 μM migalastat α-Gal A activity (% WT): percentage of baseline wild-type α-Gal A activity; for Baseline α-Gal A activity (% WT) / Baseline α-Gal A activity / 10 μM migalastat α-Gal A activity / 10 μM migalastat α-Gal A activity (% WT): mean ± SEM; for Baseline α-Gal A activity / 10 μM migalastat α-Gal A activity: lysates of HEK-293 cells transiently transfected with the mutant form; for Baseline α-Gal A activity: incubated 5 days in absence of migalastat; for 10 μM migalastat α-Gal A activity: incubated 5 days with 10 μM migalastat; for 10 μM migalastat α-Gal A activity (% WT): with 10 μM migalastat, 5 days
Method in brief: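 HEK-293 cells transiently transfected with mutant α-Gal A and incubated with or without 10 μM migalastat; lysate activity given as nmol free 4-MU released per mg protein per hour. Values are mean±SEM.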

Molecule | Absolute increase (% WT) | Relative increase | Baseline α-Gal A activity (% WT) | Baseline α-Gal A activity [nmol/mg/h] | 10 μM migalastat α-Gal A activity [nmol/mg/h] | 10 μM migalastat α-Gal A activity (% WT)
B1 | 31.0 | 1.9 | 30.3 ± 1.7 | 11819 ± 1039 | 22746 ± 1255 | 61.3 ± 3.9
B2 | 19.0 | 1.9 | 21.7 ± 0.8 | 9557 ± 452 | 17991 ± 960 | 40.7 ± 1.6
B3 | 13.7 | 1.2 | 68.4 ± 3.2 | 31991 ± 2390 | 38301 ± 2744 | 82.1 ± 3.8
B4 | 19.4 | 2.1 | 18.1 ± 0.6 | 7938 ± 336 | 16557 ± 929 | 37.5 ± 1.6
B5 | 15.7 | 1.3 | 51.3 ± 2.8 | 22766 ± 1355 | 30341 ± 3325 | 67 ± 5.6
B6 | 24.8 | 1.7 | 39.5 ± 2.3 | 15626 ± 769 | 25719 ± 1376 | 64.3 ± 3
B7 | 34.3 | 1.7 | 53.7 ± 2.8 | 23869 ± 1072 | 39534 ± 2519 | 88.1 ± 4.9
B8 | 18.7 | 1.2 | 79.7 ± 3.8 | 32974 ± 2396 | 40651 ± 2487 | 98.4 ± 3.1
B9 | 21.6 | 1.4 | 52.3 ± 4.2 | 21577 ± 1930 | 30991 ± 2695 | 73.9 ± 3.2
B10 | 23.0 | 2.1 | 20.7 ± 2.7 | 8544 ± 1083 | 18303 ± 1404 | 43.8 ± 1.6
B11 | 20.8 | 1.4 | 57.8 ± 4.8 | 23197 ± 2254 | 31963 ± 2641 | 78.6 ± 3.1
B12 | 17.7 | 1.3 | 68.7 ± 4.8 | 30532 ± 1962 | 39124 ± 2722 | 86.5 ± 4.5
B13 | 15.2 | 1.2 | 65.7 ± 4.9 | 25700 ± 1958 | 31632 ± 1825 | 80.9 ± 4.6
B14 | 31.1 | 1.4 | 65.9 ± 4.1 | 29582 ± 2747 | 42718 ± 2776 | 97 ± 4.6
B15 | 16.6 | 1.3 | 66.3 ± 3.7 | 29615 ± 1640 | 37475 ± 2540 | 83 ± 4.4
B16 | 11.0 | 1.3 | 43 ± 1.7 | 19469 ± 982 | 24732 ± 2214 | 54.1 ± 3.5
B17 | 17.5 | 1.2 | 58.9 ± 4.6 | 25886 ± 3237 | 31174 ± 2016 | 76.4 ± 2.7
B18 | 27.7 | 1.6 | 57.9 ± 3 | 21055 ± 1662 | 33829 ± 4641 | 85.6 ± 6.9
B19 | 16.8 | 2.0 | 17.1 ± 1.1 | 6415 ± 391 | 12588 ± 538 | 33.9 ± 1.8
B20 | 29.7 | 2.0 | 28.9 ± 1.3 | 12743 ± 709 | 25898 ± 1374 | 58.6 ± 2.3
B21 | 18.2 | 1.3 | 63.5 ± 2.9 | 26113 ± 1116 | 33867 ± 2526 | 81.7 ± 5
